# Source: patent US20100104603A1 (published 2010)
# Ends that are not written are not given here.
# T1: Staphylococcal superantigen-like protein 5 (SSL5) of S. aureus strain NTCT 8325, recombinant (Staphylococcus aureus strain NTCT 8325, UniProt A0A0H3K6Z6 31-234)
# T1 sequence: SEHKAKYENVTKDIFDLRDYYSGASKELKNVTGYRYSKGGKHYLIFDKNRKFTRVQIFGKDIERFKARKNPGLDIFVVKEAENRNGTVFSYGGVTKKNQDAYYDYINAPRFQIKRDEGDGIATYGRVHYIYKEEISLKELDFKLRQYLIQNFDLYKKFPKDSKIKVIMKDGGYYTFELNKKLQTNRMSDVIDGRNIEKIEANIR
# T2: IL-8 (UniProt P10145 28-99)
# T2 construct: also called biotin-labeled IL-8
# T2 sequence: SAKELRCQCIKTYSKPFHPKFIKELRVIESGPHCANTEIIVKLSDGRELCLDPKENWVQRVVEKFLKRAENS
# B1: recombinant human PSGL-1-Fc construct (PSGL-1/Ig fusion protein) (Fc fusion)
# chain: QATEYEYLDYDFLPETEPPEMLRNSTDTTPLTGPGTPESTTVEPAAR
# modifications: ends and bridges not checked; also: fused to Ig Fc part
# notes: also called rPSGL/Ig; not shown: Ig/Fc part
# Tests used:
# [1] = target: T1, Staphylococcal superantigen-like …
# [2] = target: T2, IL-8; assay: ELISA: IL-8-coated wells, PSGL-1/Ig without SSL5
binder,measurement,setting,value
B1,Kd,[1],820 nM
same,binding result,[2],no binding (tested: 1 µg/ml)
